The values that follow come from a protein production outcome set (Wang et al. 2014).

The data set is described as follows: label from the status in PepcDB records.
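Note: failed if final PepcDB status was selected cloned or expressed and not failed if soluble or beyond.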

“MSWMQNLKNYQHLRDPSEYMSQVYGDPLAYLQETTKFVTEREYYEDFGYG”: the protein production result is “failed”.

Take “MSWWQDMDQRGGVSSPSGALASAEPAPASVTLAELLHLVQKGQEVPGLEKRHITATHGEPTASLLPRRPKPWEDAGSAASPCTIALDTRTQPPTIEERSRGSPAAQLDGGPRVS”: the protein production result was “failed”.

Turning to “MSYILIVTIAIVIFSLIFDFINGFHDTANAVATAVSTRALTPRRAILLAAVMNFIGALTFTGVAGTITKDIVDPFKLQHGLVVVLAAIIAAIIWNLITWLYGIPSSSSHALIGSIAGAAIASKGSFAVLHYQGFTKIIIVLIISPIIAFCVGYMMYTIVKIVFKNSNLTRTNRNFRFFQIFTAALQSFSHGTNDAQKSMGIITLALIVGNLQDGSNVEPQVWVKVVCATAMGLGTAVGGWKIIKTVGGNIMKIRPANGAAADISSALTIFVASSLHFPLSTTHVVSSSILGVGASNRAKGVKWSTAQRMVVTWVITLPISAVLAAIIYFIIHLFLK”, the protein production result is on record as “failed”.

Consider “MSYLSQAPLYSSIPRKNCPIAWEGQFTRGDKGTSTISFEAVASHDLWIWHTFFGCASTLNDINFLDRSPVFDDIEQGNTPRVNFFVYQRQYNMAYYLADGIYPSYPTFVKSIRLPQSEPDKLFVQLQEGCRKDIERAFGVLHARFKIIWNIADLAIIMRSCIILHNMIVENERDTYAQHWTDYDQSKESGSSTPQPFSTEVLHAFANHVHARSKLRDSICTS”, for which the protein production result is reported as “not failed”.

Consider “MSYLVVTIKVILITGMPGSGKSEFAKLLKERGAKVIVMSDVVRKRYSIEAKPGERLMDFAKRLREIYGDGVVARLCVEELGTSNHDLVVFDGVRSLAEVEEFKRLLGDSVYIVAVHSPPKIRYKRMIERLRSDDSKEISELIRRDREELKLGIGEVIAMADYIITNDSNYEEFKRRCEEVTDRVLKNG”, for which the protein production entry was “failed”.

Regarding “MSYQNANYSAFYVSEPFSESNLGANSTHDFVYYNMLRMWKGEDNSFPFNDAHDKTYNVRDGSDWEKTLKPRLHTRLDNSKNIILFLSSITANSRALREEMNYGIGTKGLPVIVIYPDYDKKSDIVDSNGNFKKQIKDLWDKLPAFRDNMSSVATLHIPCTKSVIISALNNEDFMVNTMADAEKYYYKP”, the protein production result is “not failed”.

With “MSYQPTSLTVASYNLRNANGSDSARGDGWGQRYPVIAQMVQYHDFDIFGTQECFLHQLKDMKEALPGYDYIGVGRDDGKDKGEHSAIFYRTDKFDIVEKGDFWLSETPDVPSKGWDAVLPRICSWGHFKCKDTGFEFLFFNLHMDHIGKKARVESAFLVQEKMKELGRGKNLPAILTGDFNVDQTHQSYDAFVSKGVLCDSYEKCDYRYALNGTFNNFDPNSFTESRIDHIFVSPSFHVKRYGVLTDTYRSVRENSKKEDVRDCPEEITIKAYEARTPSDHFPVKVELVFDLEHHHHHH”, the protein production result is on record as “not failed”.

For the sequence “MSYQTWWSRVQVVDPEQLLDAVEEWDRPLVALTTPGTLARGLSLQVFRRIAPDEKNLLIIPHFCISGTIEKRLLEEGCCDENKITNENESIRIRCKTMNLHFGFHADTRDLLLFFSQWKPSCIVLVHGEGEKMDYLARVVQEEWGIQCWVPKEEQWITWKPNLTKSQ”, the protein production result is “failed”.

With “MSYSEIAACLAYAVSVWLAARNNVHTWWIGIIGSILYGWVFWSVQLYADVTLQLFFIATSITGWIHWLKGQGGDILPVRRTQASHFFLLLLCAVVVAGGYGFLLHTFTNAWAPWLDSLILTFSVLAQFMLMGRRIENWFVWLAVNTLAVPLYMTRGLNLTAGLYFLFWINAWHGLYQWRKELQTS”, the protein production result is listed as “failed”.

On to “MSYSVTLTGPGPWGFRLQGGKDFNMPLTISRITPGSKAAQSQLSQGDLVVAIDGVNTDTMTHLEAQNKIKSASYNLSLTLQKSKRPIPISTTAPPIQSPLPVIPHQKVVANSPANADYQERFNPSVLKDSALSTHKPIEVKGLGGKATIIHAQYNTPISMYSQDAIMDAIAGQAQAQGSDFSGASPLASLPVKDLAVDSASPVYQAVIKTQSKPEDEADEWARRSSNLQSRSFRILAQMTGTEYMQDPDEEALRRSSTPIEHAPVCTSQATSPLLPASAPSPAAASPIAASPTLATAAAAHAVAASAAGPASSPVENPRPQASAYSPAAATSPAPAAHTSYSEGPAAPAPKPRVVTTASIRPSVYQPVPASPYSPSPGANYSPTPYTPSPAPAYTPSPAPTYTPSPAPTYSPSPAPAYTPSPAPNYNPTPSAAYSGGPSESASRPPWVTDDSFSQKFAPGKSTTSVSKQTLPRGAPAYNPTGPQVTPLARGTFQRAERFPASSRTPLCGHCNNVIRGPFLVAMGRSWHPEEFNCAYCKTSLADVCFVEEQNNVYCERCYEQFFAPICAKCNTKIMGEVMHALRQTWHTTCFICAACKKPFGNSLFHMEDGEPYCEKDYINLFSTKCHGCDFPVEAGDKFIEALGHTWHDTCFICAVCHVNLEGQPFYSKKDKPLCKKHAHAINV”, for which the protein production result is given as “failed”.

As to “MTAADPGTRIVRWALVAGAVAGLLAVMAGAFGAHGLRHVVSERGLEVFQTAVSYQMYHALALVAVSLMPALGLSGNLLTLACGFWLAGMMLFSGSLYLLVLTGIHWLGPVTPVGGVCFMVGWVLLIVAALKK”, the protein production entry was “failed”.

As for “MTAAPGTSMATPHVAGIAALLLQAHPSWTPDKVKTALIETADIVKPDEIADIAYGAGRVNAYKAINYDNYAKLVFTGYVANKGSQTHQFVISGASFVTATLYWDNANSDLDLYLYDPNGNQVDYSYTAYYGFEKVGYYNPTDGTWTIKVVSYSGSANYQVDVVSDGSLSQLEHHHHHH”, the protein production result was “not failed”.

For “MTAETPSLTSPQAQRILRLYHLYRLTIGVVLVLLISSSLETELLQLANPNLFRSGCWLYLVFNILVVVLLERPSRQAQLFGLAMTDAIMLSGLFYAAGGPSSGIGNLLIASVAISNVLLRGRIGLLIAAVSAIGIIYLTFYISFGTPSVSNDYVQAGSLGALCFAAALLVQALTARLQVSEGLAEQRAADVDSLEELNALILQRMRTGIVVLDARRQVVLANQGALTLLGHERLVGQVIDAYSPQLVERLRQWLINPIMVPRSITTSSIGPVLQPSFAALNRGDQRQTLIFLEDLSQIAHQAQQLKLAALGRLTAGIAHEIRNPLGAVSHAAQLLNESEDLSAPDRRLGQIIHDQSQRIDRVIENVLQLSRRREAQPELLDLKVWLENFVSDFRSSAAADQSIHVQISSGMLTTRMDAGQLTQIITNLVQNGLRYSRRNHPSAQVWLNLHHDRESDLPILEVLDDGPGVSEQHLSKIFEPFFTTESKGTGLGLYLSRELCESNQAHLEYIPRPHDGGSCLRITFAHPFKTS”, the protein production result is “failed”.

Regarding “MTAFYLLVPFLFIRFIFLSLLDRKATGRAAHFASMQGKEIIAYYLYQLSTLMLLIVPFFLKVSLHFSSFFYLGLGAYLLGSVLLFLVIKDFANPDEKGLNTKGLYALSRHPMYIAYFVLFLGVAMLTQSLTLLIFLAIFQLSAHFIILAEERECLIKFGAAYQEYQKRVRMYL”, the protein production result was “failed”.

With “MTAGWCCRTVRAALFAAVCVLLAALGHVMMSGTAVPWWAMTVAALVTGGTGWCLAGRERGLALIVSVVVVAQGALHSAFSVAQSAAHSAGSVGADSMPKGSMGSDMSSVHMDSVHMDSMDMGNMGAGHLAHLGHDMGGGSSFGMLAAHSAAALLCGLWLAYGERAAFRILRALAGRLAAPLRLLLALPTPAHRPRIRVRRGSSDRTPRRLLLVHAITSRGPPVGTAVI”, the protein production result is listed as “failed”.

As for “MTAIPRAPLILGLAGLIPFLWGALTYLSPAAQAWGAAALGPRFVGPYVQIAYGQIILAFMSGVLWGFATKADDRRAATGYVLAVLPALWAFFMTGGGPTGAAINLIFGFLGLLMLDAAFASWGLAPVWWMRLRLLLTAVVTICLAVGAFL”, the protein production result is reported as “failed”.

As for “MTALLTRVWACTLCQAELPFPPKPILQASSQARILIAGQAPGVKTHHKGIPFDDASGERLRAWLNVSREQFYDPALFAIVPMGFCFPGNIERKGKKQGDKPPRPECAATWHKALLALMPNIELVIVLGQYAMDYHLSRLLMDNMHKNRGFNSTPLAAAHTIGKATSNKKITLTQAVEQWPLYWPQLMVMPHPSPRNNLWLKQHPEFEQHLIPTLRSRISSLLT”, the protein production result is “failed”.

With “MTANAYVRARIDQTLKDDATAVLDRLGLTVSDVMRMMLTRIAREKALPIELTQPNAETLAAIEEARAIAAAGRNRFGTSEALFEALDAGKRLEHHHHHH”, the protein production entry is reported as “not failed”.

With “MTAPASSLDRFFGLRARGTTVRREILAGTTTFMTMAYILFVNPEILGSAAGAGHFAAILTSTALVAAVMTAAMGLFANLPLALASGMGLNAVVAFGLVLGKKLTYPQAMGVIVAEGVLITLLVATGLRQAVVRAVPMTLKRAIGIGIGLFLAIIGFKAAGFISAGGALLQLGPEGAAGRLTGFPVVLFALTLVFTAWLVSRGVRGALLIGIAVSTAVAVTAKAAFGGAGFAPHVANLPSSIFGLPDFSMLGQVDFSFVAVLGPLAASLAVFSIMLSDFFDTVGTVVAVGQEAKYLDEQGNFPRASTVLMVDSLAAIAGGLAGASSATTYVESAAGAASGGRTGLTSVTTAALFALCLFISPLAGIVPPQATGAVLVLVGYMMMRDVGAIAWDDPSESIPAFLTVTVMPFTYSITNGIGAGFVSYVLLKLAGGKAREVHPLMIGASVAFVVYFAIGG”, the protein production result was “failed”.

Turning to “MTAPDRSPPRYKSDLIYGLNDRPHFSAAIFAALQHVLASFVGIISPTLIFGGVLGLESELPYLISMALFVSGLGTFVQARRLGPIGSGLLCVQGTSFSFISVLLSAGFMVKGRGGDTNEILSTIFGICFVAAFIEMFLSQFIGKLRKLITPVVTGTIITLMGLSLIKVAVTDMAGGYGASDLGAASNLGLAALVLLTIVVLNRFNHPMLRLGSIVIGLTLGFVVAWMLGRVDMAAMPEVPLVSVPVPFKYGFSFDLIAFIPLAVIFLISPLEAAGDLTANSMISQQPVKGPLYIKRIKSGLLADGFNSAVAAVFNSLPMVTFAQNNGVIQLTGVASRYVAYFIAGLLVLLGLFPVIGAVLQLMPKPVLGGATLIMFGTVAVAGIKILAEAGLHRRNVLIVAISLGMGLGVAAVPEVLRELPKALHNIFESPITVGAFCAIFLNIFLPEEFLELEEDEFDPEAATLKVMQDPDMSGKANS”, the protein production entry is reported as “failed”.

Take “MTAQLISPTIHGILDYLLGAVLVVAPSVLGLPTGPAVIAYAVGGAHLAMSLLTGYAPGALRVIPFWAHGAVEAAGWAGLLVFLGLLTAPADGLFLASGVGILVVSALTDYGVETDGVRLRARRHAHARP”: the protein production result is “failed”.

For “MTAQPLLVFDFDGVIVDGMAEYWWSAWMAAQRLNAEPQGLGSDAVPQGFRRLRPWVHHGWEMVLLAAEMPQLDPERWVVDYATEQDMALQRRGWSASLLQEALDQTRQQAVSSDRAAWLGLHQPFPGLVDRLQAFQEEGVDWAVLTTKTAAFTAELLESLGLRPWRLDGREAGPKPEVLLRLQRERVLAGFVEDRRATLETVRDTDGLQSLPCWLASWGYLKPSDREDLPRGIQLIDQDRLATPLAQWP”, the protein production entry is “failed”.

Turning to “MTASLEIRPFQETDLDFVRQLARQEDFAPGIGDIAIYANTANQGVWLAWQGDMPVGCIAAVKYNLDYGFMGLFVVHPDHRGGGVGRQLWDHALALLADVTCIGLEAAPSMVEFYQRQGFRKDSITTRRQHLRLEESSQHPTRRLLHRNDITIVPLKAISLDAVQAYDERHEISPRPHFLQQWLNHQAGDVFVAMDGSHQCHGYVRIRPCLLPIGQGWRIGPLLAEEPGIASLLLSNAMDRHKGIILIDTPGHNRSARTVAGAKGFRRMGATHRMYKGDLDNGHDQNIYGLACLELG”, the protein production result is “failed”.

Take “MTASSKRTKKQAILETALQLFVSQGFHGTSTATIAREAGVATGTLFHHFPSKEQLLEQLFLGVKQEFADAIQASVSSRGDLKQDAEQLWFAALTWAMANPLKQAFFQLYSMSPTVEQSVRDQAMHGILGFIAELIRQGQASGELAEYPIELMQDNCHGQYLAATRYFVDHPERWQQAHERSASFALFWNAMAVR”: the protein production entry is listed as “not failed”.
